One assay deals with T1, SF3a60 (human (endogenous in HeLa), UniProt Q12874 1-501).
T1 sequence: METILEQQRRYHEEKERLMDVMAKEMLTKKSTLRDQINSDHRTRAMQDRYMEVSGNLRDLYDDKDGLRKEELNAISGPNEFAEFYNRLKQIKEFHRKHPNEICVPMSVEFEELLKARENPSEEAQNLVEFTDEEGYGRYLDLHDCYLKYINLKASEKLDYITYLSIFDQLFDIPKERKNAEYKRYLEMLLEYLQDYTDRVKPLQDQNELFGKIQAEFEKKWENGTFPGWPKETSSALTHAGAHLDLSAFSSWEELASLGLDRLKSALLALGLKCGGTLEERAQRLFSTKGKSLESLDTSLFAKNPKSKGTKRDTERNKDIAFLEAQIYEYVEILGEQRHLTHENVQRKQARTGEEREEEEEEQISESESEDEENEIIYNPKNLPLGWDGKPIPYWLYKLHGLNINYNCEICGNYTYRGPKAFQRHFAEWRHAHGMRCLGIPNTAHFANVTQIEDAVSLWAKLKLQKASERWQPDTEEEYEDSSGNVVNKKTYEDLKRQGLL
The assay is described as follows: co-IP.

The target in a further assay is T2, SF3a120 (human (endogenous in HeLa), UniProt Q15459 1-793).
T2 sequence: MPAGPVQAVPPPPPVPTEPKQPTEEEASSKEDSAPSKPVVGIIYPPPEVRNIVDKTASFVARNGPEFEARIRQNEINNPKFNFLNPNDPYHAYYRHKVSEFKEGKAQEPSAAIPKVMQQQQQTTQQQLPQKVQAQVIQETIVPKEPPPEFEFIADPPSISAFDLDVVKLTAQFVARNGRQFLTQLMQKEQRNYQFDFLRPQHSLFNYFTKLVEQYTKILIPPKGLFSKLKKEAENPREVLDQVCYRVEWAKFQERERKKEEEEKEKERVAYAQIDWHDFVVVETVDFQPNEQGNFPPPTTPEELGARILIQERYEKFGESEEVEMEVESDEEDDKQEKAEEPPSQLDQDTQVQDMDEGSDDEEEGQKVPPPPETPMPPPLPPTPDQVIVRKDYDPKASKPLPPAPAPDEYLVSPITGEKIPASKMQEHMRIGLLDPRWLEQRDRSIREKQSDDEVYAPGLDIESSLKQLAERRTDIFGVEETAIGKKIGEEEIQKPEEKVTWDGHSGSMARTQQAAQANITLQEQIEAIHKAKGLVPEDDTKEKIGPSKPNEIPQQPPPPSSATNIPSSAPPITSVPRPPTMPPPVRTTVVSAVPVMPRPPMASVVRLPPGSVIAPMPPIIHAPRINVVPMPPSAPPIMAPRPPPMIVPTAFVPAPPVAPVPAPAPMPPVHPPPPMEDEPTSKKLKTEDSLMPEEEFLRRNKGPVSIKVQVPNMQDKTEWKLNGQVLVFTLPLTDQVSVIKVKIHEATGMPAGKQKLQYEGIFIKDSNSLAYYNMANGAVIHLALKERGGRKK
The assay is described as follows: co-IP.

B1: SF3a66 (natural protein)
chain: MDFQHRPGGKTGSGGVASSSESNRDRRERLRQLALETIDINKDPYFMKNHLGSYECKLCLTLHNNEGSYLAHTQGKKHQTNLARRAAKEAKEAPAQPAPEKVKVEVKKFVKIGRPGYKVTKQRDSEMGQQSLLFQIDYPEIAEGIMPRHRFMSAYEQRIEPPDRRWQYLLMAAEPYETIAFKVPSREIDKAEGKFWTHWNRETKQFFLQFHFKMEKPPAPPSLPAGPPGVKRPPPPLMNGLPPRPPLPESLPPPPPGGLPLPPMPPTGPAPSGPPGPPQLPPPAPGVHPPAPVVHPPASGVHPPAPGVHPPAPGVHPPAPGVHPPTSGVHPPAPGVHPPAPGVHPPAPGVHPPAPGVHPPAPGVHPPPSAGVHPQAPGVHPAAPAVHPQAPGVHPPAPGMHPQAPGVHPQPPGVHPSAPGVHPQPPGVHPSNPGVHPPTPMPPMLRPPLPSEGPGNIPPPPPTN
For the molecule B1, the binding result in the assay with SF3a60 and with SF3a120 was “binds” each time.

For the origin of these results see PMC2133165 (The Journal of Cell Biology, 1999).
